Source: patent US7563583B2, “Heregulin variants” (Genentech, Inc., priority 1997, dated 2009)
Where a chain is given by its changes, count along the chain named.

B1: V191: HRG-β1 variant with V191 mutated to alanine (protein, UniProt Q02297 1-640, looked up, variant V191A)
chain: MSERKEGRGKGKGKKKERGSGKKPESAAGSQSPALPPRLKEMKSQESAAGSKLVLRCETSSEYSSLRFKWFKNGNELNRKNKPQNIKIQKKPGKSELRINKASLADSGEYMCKVISKLGNDSASANITIVESNEIITGMPASTEGAYVSSESPIRISVSTEGANTSSSTSTSTTGTSHLVKCAEKEKTFCANGGECFMVKDLSNPSRYLCKCQPGFTGARCTENVPMKVQNQEKAEELYQKRVLTITGICIALLVVGIMCVVAYCKTKKQRKKLHDRLRQSLRSERNNMMNIANGPHHPNPPPENVQLVNQYVSKNVISSEHIVEREAETSFSTSHYTSTAHHSTTVTQTPSHSWSNGHTESILSESHSVIVMSSVENSRHSSPTGGPRGRLNGTGGPRECNSFLRHARETPDSYRDSPHSERYVSAMTTPARMSPVDFHTPSSPKSPPSEMSPPVSSMTVSMPSMAVSPFMEEERPLLLVTPPRLREKKFDHHPQQFSSFHHNPAHDSNSLPASPLRIVEDEEYETTQEYEPAQEPVKKLANSRRAKRTKPNGHIANRLEVDSNTSSQSSNSESETEDERVGEDTPFLGIQNPLAASLEATPAFRLADSRTNPAGRFSTQEEIQARLSSVIANQDPIAV
B2: N204: HRG-β1 variant with N204 mutated to alanine (protein, UniProt Q02297 1-640, looked up, variant N204A)
chain: B1 chain with A191V, N204A
B3: T188: HRG-β1 variant with T188 mutated to alanine (protein, UniProt Q02297 1-640, looked up, variant T188A)
chain: B1 chain with T188A, A191V
B4: L209: HRG-β1 variant with L209 mutated to alanine (protein, UniProt Q02297 1-640, looked up, variant L209A)
chain: B1 chain with A191V, L209A
B5: E184: HRG-β1 variant with E184 mutated to alanine (protein, UniProt Q02297 1-640, looked up, variant E184A)
chain: B1 chain with E184A, A191V
B6: D201: HRG-β1 variant with D201 mutated to alanine (protein, UniProt Q02297 1-640, looked up, variant D201A)
chain: B1 chain with A191V, D201A
B7: V199: HRG-β1 variant with V199 mutated to alanine (protein)
chain: SHLVKCAEKEKTFCVNGGECFMAKDLSNPSRYLCKCPNEFTGDRCQNYVMASFYKHLGIEFMEAEELY
modifications: left off: large carriers; small tags and cut ends
notes: HRG-β1 variant with V199 mutated to alanine
B8: F229: HRG-β1 variant with F229 mutated to alanine (protein)
chain: B7 chain with A23V, F53A
modifications: left off: large carriers; small tags and cut ends
notes: HRG-β1 variant with F229 mutated to alanine
B9: E215: HRG-β1 variant with E215 mutated to alanine (protein)
chain: B7 chain with A23V, E39A
modifications: left off: large carriers; small tags and cut ends
notes: HRG-β1 variant with E215 mutated to alanine
B10: S177: HRG-β1 variant with S177 mutated to alanine (protein)
chain: B7 chain with S1A, A23V
modifications: left off: large carriers
notes: HRG-β1 variant with S177 mutated to alanine
B11: K200: HRG-β1 variant with K200 mutated to alanine (protein)
chain: B7 chain with A23V, K24A
modifications: left off: large carriers; small tags and cut ends
notes: HRG-β1 variant with K200 mutated to alanine
B12: P205: HRG-β1 variant with P205 mutated to alanine (protein)
chain: B7 chain with A23V, P29A
modifications: left off: large carriers; small tags and cut ends
notes: HRG-β1 variant with P205 mutated to alanine

tested on: ErbB-3 or ErbB-4 receptors; assay: Alanine scan of the HRG-β1 EGF-like domain by phage ELISA (FIG. 2); format: binding; conditions: ratio of variant EC50 to wild-type EC50
Protocol: The X axis lists each amino acid that was changed to alanine and its position. […] The EC50 was calculated as the concentration of soluble receptor fusion required to displace 50% of the total amount of phage bound to immobilized receptor fusion. ErbB-3 binding results are shown with black bars, and ErbB-4 binding results are shown with white bars.
Alanine-substituted variants were generated by site-directed mutagenesis according to Kunkel et al., Methods Enzymol. 154:367-82 (1987) (hereinafter “Kunkel mutagenesis”), using uracil-containing single-stranded DNA template prepared from pHRG2-g3. pHRG2-g3, which is described in Example 1, expressed HRG-β1 177-244 fused to pIII 247. A series of oligonucleotides was used to generate a series of constructs that expressed a series of variants in which consecutive residues were mutated to alanine. Phage stocks were prepared from these constructs as described in Example 1, except that PEG(8000) was used to precipitate the phage. The affinities of the alanine-substituted variants for ErbB-3-Ig and ErbB-4-Ig was determined by phage ELISA as described in Example 1.

| effect of substitution with alanine on affinity for the ErbB-3 or ErbB-4 receptors | Molecule |
| --- | --- |
| two and five | B1 |
| two | B2 |
| two and five | B3 |
| two and five | B4 |
| two | B5 |
| two | B6 |
| two | B7 |
| two and five | B8 |
| two | B9 |
| two and five | B10 |
| two | B11 |
| two | B12 |
